The test concerns the target recombinant rat F1-ATPase β-subunit (purified protein) (rat) (UniProt P10719). The test is described as follows: BiaCore surface plasmon resonance, purified F1-ATPase β-subunit.

pKd: −log10 of the molar value.

Sequence of UniProt P10719 (P10719 47-529): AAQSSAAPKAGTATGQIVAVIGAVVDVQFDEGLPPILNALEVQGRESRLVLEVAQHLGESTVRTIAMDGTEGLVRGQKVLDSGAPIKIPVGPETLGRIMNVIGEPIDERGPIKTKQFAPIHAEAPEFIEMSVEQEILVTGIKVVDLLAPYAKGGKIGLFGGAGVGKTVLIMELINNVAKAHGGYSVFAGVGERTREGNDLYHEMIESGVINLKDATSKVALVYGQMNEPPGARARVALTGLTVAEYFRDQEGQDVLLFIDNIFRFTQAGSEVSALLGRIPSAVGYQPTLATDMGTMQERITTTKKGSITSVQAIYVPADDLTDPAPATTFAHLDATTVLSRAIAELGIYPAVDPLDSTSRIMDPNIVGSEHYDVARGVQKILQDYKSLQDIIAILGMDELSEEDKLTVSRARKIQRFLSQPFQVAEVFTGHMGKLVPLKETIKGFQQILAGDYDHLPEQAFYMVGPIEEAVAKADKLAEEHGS

In the case of enterostatin (peptide), the pKd is 6.82.

A word on the pKd: it is the Kd on a negative log10 scale, so that one unit is a factor of ten.

Values taken from patent US20090208976A1.
